According to patent publication US20250135043A1, “DUAL-TARGETING COMPOUND FOR FIBROBLAST ACTIVATION PROTEIN (FAP) AND INTEGRIN avB3, PREPARATION METHOD THEREFOR AND USE THEREOF” (YANTAI LANNACHENG BIOTECHNOLOGY CO., LTD., priority 2022, published 2025):

Assays:
[1] = molecular target: T1, integrin αvβ3 (Homo sapiens, UniProt P05106+P06756); assay: Cell binding experiment in U87MG tumor cells
T1 construct: endogenous in cells; host or cells: U87MG tumor cells
Description: A cell binding experiment was carried out in HT1080-FAP and U87MG tumor cells, and test results are shown in Part B and Part C of FIG. 52, respectively.

[2] = system: HT1080-FAP tumor-bearing mice; conditions: mouse, in vivo
Description: Then, under anaesthesia with isoflurane, the ^68Ga-FAPI-RGD (V-25) group was subjected to MicroPET imaging after administration for 0-240 min, respectively, and the other groups were subjected to MicroPET imaging after administration for 0-120 min, respectively. In FIG. 53, Part A, Part C and Part E show maximum-density MicroPET projection images of the HT1080-FAP tumor-bearing mice (n=3) at different time points after the intravenous injection of the three groups of mice, respectively, and Part B, Part D and Part F show uptake in various organs or tissues (such as blood, liver, kidney, tumors and muscles) of the three groups of mice at different time points after the injection, respectively, where three uptake amounts in each group correspond to, from left to right, 0.5 h, 1 h and 2 h after the injection, respectively. […] A specific binding property of the ^68Ga-FAPI-RGD (V-25) to integrin αvβ3 and FAP in vivo is proven by a blocking experiment. The ^68Ga-FAPI-RGD (V-25) and C(RGDfK) or FAPI-02 were co-injected into HT1080-FAP tumor-bearing mice, and MicroPET imaging results and organ uptake results are shown in FIG. 54. […]

[3] = system: tumors of patients (pancreatic cancer, non small cell lung cancer, small cell lung cancer, nasopharyngeal carcinoma); conditions: human, in vivo, iv
Description: In a clinical trial in the real world, a patient with pancreatic cancer (one), a patient with non small cell lung cancer (one), a patient with small cell lung cancer (one) and a patient with nasopharyngeal carcinoma (one) were used as subjects. An intravenous injection dose (1.8-2.2 MBq [0.05-0.06 mCi]/kg) of the ^68Ga-FAPI-RGD (V-25) was calculated based on a body weight of each subject. After intravenous injection was performed for 3 h, data was obtained by a hybrid PET/CT scanner (Discovery MI, GE Health care, Milwaukee, WI, USA). A maximum standard uptake value (SUVmax) was automatically calculated by using a region of interest (ROI) drawn on a transaxial image. The SUVmax value of the ^68Ga-FAPI-RGD (V-25) targeting two targets is higher than that of ^68Ga-FAPI-46 targeting the single target, FAP, in different types of tumors, and the SUVmax value is increased by about 30-50%, proving that the design of targeting two targets can improve the number and utilization efficiency of effective receptors in tumors, thereby improving the uptake in tumors.

T1 sequence (P06756 31-889 limits assumed): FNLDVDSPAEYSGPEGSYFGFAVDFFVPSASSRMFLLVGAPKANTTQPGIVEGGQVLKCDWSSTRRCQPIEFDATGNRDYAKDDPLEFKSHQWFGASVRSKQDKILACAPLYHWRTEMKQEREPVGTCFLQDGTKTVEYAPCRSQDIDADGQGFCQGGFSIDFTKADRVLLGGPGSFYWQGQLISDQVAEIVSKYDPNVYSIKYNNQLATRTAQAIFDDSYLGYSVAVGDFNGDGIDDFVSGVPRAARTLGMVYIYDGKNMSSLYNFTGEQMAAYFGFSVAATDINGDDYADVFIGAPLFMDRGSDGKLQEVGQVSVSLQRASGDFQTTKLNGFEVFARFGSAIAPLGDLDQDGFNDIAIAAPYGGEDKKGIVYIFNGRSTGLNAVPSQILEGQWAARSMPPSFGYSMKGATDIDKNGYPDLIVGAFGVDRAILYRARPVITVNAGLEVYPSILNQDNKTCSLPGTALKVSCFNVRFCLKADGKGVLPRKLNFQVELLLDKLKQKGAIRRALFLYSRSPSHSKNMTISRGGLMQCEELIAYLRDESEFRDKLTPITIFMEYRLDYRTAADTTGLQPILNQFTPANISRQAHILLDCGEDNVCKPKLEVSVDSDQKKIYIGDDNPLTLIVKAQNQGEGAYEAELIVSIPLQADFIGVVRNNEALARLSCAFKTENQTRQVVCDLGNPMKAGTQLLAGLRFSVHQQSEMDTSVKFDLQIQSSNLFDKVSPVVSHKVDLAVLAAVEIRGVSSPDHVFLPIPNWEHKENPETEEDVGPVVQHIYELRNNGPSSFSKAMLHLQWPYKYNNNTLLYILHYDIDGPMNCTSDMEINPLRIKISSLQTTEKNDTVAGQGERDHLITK
T1 sequence (P06756 891-1048 partner limits assumed): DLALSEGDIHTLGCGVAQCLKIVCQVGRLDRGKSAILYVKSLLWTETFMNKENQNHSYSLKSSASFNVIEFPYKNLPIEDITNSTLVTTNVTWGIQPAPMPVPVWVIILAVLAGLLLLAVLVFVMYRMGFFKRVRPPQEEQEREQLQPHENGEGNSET
T1 sequence (P05106 27-788): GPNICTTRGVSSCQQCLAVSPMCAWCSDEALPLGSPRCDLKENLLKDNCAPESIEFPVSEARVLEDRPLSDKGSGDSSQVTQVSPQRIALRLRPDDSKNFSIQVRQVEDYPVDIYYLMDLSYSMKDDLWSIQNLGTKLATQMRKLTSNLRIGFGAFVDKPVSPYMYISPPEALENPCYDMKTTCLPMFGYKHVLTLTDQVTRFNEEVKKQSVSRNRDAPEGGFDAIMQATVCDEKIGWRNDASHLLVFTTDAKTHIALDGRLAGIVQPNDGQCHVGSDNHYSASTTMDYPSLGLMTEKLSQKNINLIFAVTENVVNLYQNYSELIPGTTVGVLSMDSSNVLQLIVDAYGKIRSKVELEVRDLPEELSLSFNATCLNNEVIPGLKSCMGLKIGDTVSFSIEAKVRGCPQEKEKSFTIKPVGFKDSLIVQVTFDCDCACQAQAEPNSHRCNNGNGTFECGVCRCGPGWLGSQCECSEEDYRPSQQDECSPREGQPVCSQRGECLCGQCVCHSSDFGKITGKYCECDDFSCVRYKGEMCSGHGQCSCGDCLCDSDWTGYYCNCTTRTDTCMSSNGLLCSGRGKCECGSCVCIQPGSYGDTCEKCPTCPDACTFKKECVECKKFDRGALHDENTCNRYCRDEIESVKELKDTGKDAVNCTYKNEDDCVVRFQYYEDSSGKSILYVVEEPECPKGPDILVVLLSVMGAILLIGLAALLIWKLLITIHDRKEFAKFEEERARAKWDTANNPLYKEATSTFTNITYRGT

N#C[C@@H]1CCCN1C(=O)CNC(=O)c1ccnc2ccc(OCCCN3CCN(C(=O)CCOCCOCCNC(=O)[C@H](CCC(=O)NCCOCCOCCC(=O)NCCCC[C@@H]4NC(=O)[C@@H](Cc5ccccc5)NC(=O)[C@H](CC(=O)O)NC(=O)CNC(=O)[C@H](CCCNC(=N)N)NC4=O)NC(=O)CN4CCN(CC(=O)O)CCN(CC(=O)O)CC4)CC3)cc12 [^68Ga-FAPI-RGD (V-25), metal not drawn]
IC50 [1]: 18.9 nM
tumor uptake compared with monomers [2]: higher
SUVmax value compared with 68Ga-FAPI-46 [3]: higher
increase of SUVmax value over 68Ga-FAPI-46 [3]: 30-50%
